Measured values from the nanobody polyreactivity screen of Harvey et al. (2022).

Experiment: yeast display, Sf9 membrane polyspecificity reagent, FACS + sequencing; frameworks hold sequencing errors
Outline: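 Nanobodies from a synthetic yeast display library (Saccharomyces cerevisiae BJ5465), induced 36–48 hours with galactose, were stained 1 hour at 4 °C with 10% biotinylated, detergent-solubilized Sf9 membrane reagent, enriched on streptavidin microbeads, then FACS-sorted. Anti-HA (expression) and streptavidin (reagent binding) fluorescence set low and high (top ~1%) gates. Polyreactivity labels come from the gate of origin. Genes were colony-PCR amplified, MiSeq 2 × 250 sequenced and filtered by CDR length.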
With “QVQLVDSGGGLVQAGGGLRLSCAASGRIFVKYGMGWYRQAPGKERELVAAISWTGGSTYYADSVKGRFTISRDNEKNTVYLQMNSLKPEDTAVYYCAKSFGIWHARWLTYDYWGQGTQVTVSS” the “polyreactivity (PSR sort gate)” value was “low polyreactivity”. In the case of “QVQLVDSGGGLVQAGGILRLSCAASGRTFWIYAMGWYRQAPGKERQLVAAITGSGGSTYYADSVKGRFTISRDNAKNTGYLQMICLKPEDTAVYYCNARVPDCYKWSAYYSHDYWGQGTQVTVSS”, the “polyreactivity (PSR sort gate)” value is reported as “low polyreactivity”. In the case of “QVQLVDSGGGLVQAGGILRLSSPASGSTFKYYTMGRSRQAPGKEREWVAGITLSGPTTYYADSVKGRFTISRDNAKNTVYLQMNSLKPEDTAVYYCAADYYHDFNAYYYWGQGTQVTVSS”, the “polyreactivity (PSR sort gate)” value is reported as “low polyreactivity”. For “QVQLVDSGGGLVQAGGRLRLSCAASGFIFGRNAMGWYRQAPGKERELVAGISSSGVRTFYADSVKGRFTISRDNAKNTVYLQMNSLKPEDNAVYYCATRGRVYPTKYSLDEDYWGQGTQVTVSS”, the “polyreactivity (PSR sort gate)” value was “high polyreactivity”. In the case of “QVQLVDSGGGLVQAGGRLRLSCAASGSTFGHNAMGWYRQAPGKERQLLAAISRSGGITYYADSVKGRFTISRDNAKNTVYLQLNSLKPEDTAVYYCAADAWFSLRYAPRSYAYGYWGQGTQVTVSS”, the “polyreactivity (PSR sort gate)” value is reported as “low polyreactivity”. With “QVQLVDSGGGLVQAGGRLRLSCAPSGLTFARNAMGWYIQAPGKERELVAAISRSGGRTSYADSVKGRFTISRDIAKNTVYVQMNSLKPVDTAVYYCAARSDVYSHDYWGQGTQVTVSS” the “polyreactivity (PSR sort gate)” value was “high polyreactivity”. In the case of “QVQLVDSGGGLVQAGGRLRLSCDASGLTLYKNGLGWYRLEPVKERELFAVISRSGGRTYYADSVKGRFTISRDNAKNTVYLQFNSLKPEETAVYYCAARGIGPTKYDYLGQGTQVTVSS”, the “polyreactivity (PSR sort gate)” value is reported as “high polyreactivity”. With “QVQLVDSGGGLVQAGGSHRLSCAASGLTYHQYAMGWYRQAPGKERELVAAITSDGASTNYADSVKGRFTISRDNAKNTVYLQMISLKPEDTAVYYGAARRRSRQYRYDYWGQGTQVTVSS” the “polyreactivity (PSR sort gate)” value was “high polyreactivity”. For “QVQLVDSGGGLVQAGGSLRFSCAASGRTSNVYAMGWFRQAPGKERELVAAISARDGTTYNADSVKGRFTISRDNAKNTVYLQMNSLKPEDTAVYYCAAAVLSYADYYYDYEYWGQGTQVTVSS”, the “polyreactivity (PSR sort gate)” value was “high polyreactivity”. In the case of “QVQLVDSGGGLVQAGGSLRISCAASGRNFGYNAMGSYRQAPGKERELVAAISSGGSTYYADSVKGLFTISRDNAKNTVYLQINSLKPEDTAVYFCAAEDYPPYPTDYDYWGQGSQVTVSS”, the “polyreactivity (PSR sort gate)” value is reported as “low polyreactivity”. For “QVQLVDSGGGLVQAGGSLRLICAASGRTFGGNTMGWYREAPGKERELVAAISRRGGSTYYADSVKGRFSISRDNAKNTVYLQMNSLKPEDTAVYYCNKDGPSYSSYDYWGQGTQVTVSS”, the “polyreactivity (PSR sort gate)” value was “low polyreactivity”. For “QVQLVDSGGGLVQAGGSLRLICAASGSIFIDKAMGWYRQAPGKERELVAAISWSGGRTYYADSVKGRFTISRDNAKNTVYLQMNSLKPEDTAVYYCAVDFRHPYDYDYWGQGTQVTVSS”, the “polyreactivity (PSR sort gate)” value was “high polyreactivity”. For “QVQLVDSGGGLVQAGGSLRLSCAAAGSNLSQYAMGWYRQAPGKERELVAAITYGGGSTYYADSVKGRFTISRDNAKKTVHIQMISLKPEDPAVYYCALEFTYWGDPYDYWGQGTQVTVSS”, the “polyreactivity (PSR sort gate)” value was “low polyreactivity”. In the case of “QVQLVDSGGGLVQAGGSLRLSCAASGFIDALDAMGWYRQAPGKERELVAAISYSGGSTYYADSVKGRFTISRDNAKNTVYLQMNSLKPEDTAVYYCAVYYRSAFYYWGQGTQVTVSS”, the “polyreactivity (PSR sort gate)” value is reported as “high polyreactivity”. In the case of “QVQLVDSGGGLVQAGGSLRLSCAASGFIFDTNVMGWYRQAPGKERELVAAISWDVDSTYYADSVKGRFTISRDNAKNTVYLQMNSLKPEDTAVYYCATETFDYYGLAGEYWGQGTQVTVSS”, the “polyreactivity (PSR sort gate)” value is reported as “high polyreactivity”. For “QVQLVDSGGGLVQAGGSLRLSCAASGFIFFQNAMGWYRQSPGKERELVAAISRRGGSTYYADSVKGRFTISRDNAKNTVYLQRNSLTPDDTAGYYCAARSRCDLASRYTGDYWGQGTQLTVSS”, the “polyreactivity (PSR sort gate)” value was “low polyreactivity”. With “QVQLVDSGGGLVQAGGSLRLSCAASGFIFTQYAMGWYRQAPGQDRELVAAISRSGSSTYYADSVKGRFTISRDNAKNTVSLQMNSLKPEDTAVYYCAAKGSRGTRYWGEDYWGQGTQVTVSS” the “polyreactivity (PSR sort gate)” value was “low polyreactivity”. With “QVQLVDSGGGLVQAGGSLRLSCAASGFIFVRYAMGWYRQAPGKERELVAAISWSGARTYYADSVKGRFTISRDNAKNTVYLQFNSLKPEDSAVYYCAADSLDAGYYGYDYWGQGTQVGVSS” the “polyreactivity (PSR sort gate)” value was “high polyreactivity”. With “QVQLVDSGGGLVQAGGSLRLSCAASGFTFRPYAMGWYRQAPGKERELVATITGRGGSTYYADSVKGRFTISRDTAKNTVYLQMNSLKPEDTAVYYCASRARYSPAPYDYWGQGTQVTVSS” the “polyreactivity (PSR sort gate)” value was “high polyreactivity”. In the case of “QVQLVDSGGGLVQAGGSLRLSCAASGFTFVYYFMGWYRQAPGKERELVAAITRSCRTYYADSVKGRFTISRDNAKNTVYLQMNSLKPEDTAVYYCARGYGYADHAMGYWGQGTQVTVSS”, the “polyreactivity (PSR sort gate)” value is reported as “high polyreactivity”. For “QVQLVDSGGGLVQAGGSLRLSCAASGFTFYLYTMGWYRPAPGKERQLVATITSDGGTNYADSVKGRFTISRDNAKNTVYLQMNSLKPEDTAVYYCNAASRRGSRKQAKYDYWGQGTQVTVSS”, the “polyreactivity (PSR sort gate)” value was “low polyreactivity”. In the case of “QVQLVDSGGGLVQAGGSLRLSCAASGFTFYRYAMGWYRQAPGKERELVAAITGRAGRTYYADSVKGRFTISRDNAKNTVYLQMNSLKPEDTAVYYCSGYRYYGGYGYWGQGTQVTVSS”, the “polyreactivity (PSR sort gate)” value is reported as “high polyreactivity”. In the case of “QVQLVDSGGGLVQAGGSLRLSCAASGFTIKYYAMVWYRQAPGKERELVATITSGARTNYADSVKGRFTISRDNAKNTVYLQMNSLKPEDTAVYYCATPYSAYWQNERDYWGQGTQVTVSS”, the “polyreactivity (PSR sort gate)” value is reported as “high polyreactivity”. For “QVQLVDSGGGLVQAGGSLRLSCAASGGTFKYYAMGWYRQAPGKERELVAAITWSGGSTYYADSVKGRFTISRDNAKNTVYLQMNSLKPEDTAVYYCNAAYSQIRFNYWGQGTQVTVSS”, the “polyreactivity (PSR sort gate)” value was “high polyreactivity”. With “QVQLVDSGGGLVQAGGSLRLSCAASGGTFQGNAMGWYRQAPGKEREFVATITRGGGSKYYADSVKGRFTISRDNAKNTVYLQMNSLKPEDTAVYFCNAYLVSRYPGDYWGQGTQVTVSP” the “polyreactivity (PSR sort gate)” value was “high polyreactivity”. In the case of “QVQLVDSGGGLVQAGGSLRLSCAASGGTLRYYAMGWYRQAPGTEREFVASISRSGGSTYYADSVKGRFTISRDTAKYTVYLQMNSLKPVDTAVYYCADVKSSGSPRARYGYWGQGTQVTLSS”, the “polyreactivity (PSR sort gate)” value is reported as “high polyreactivity”. In the case of “QVQLVDSGGGLVQAGGSLRLSCAASGITFSGYDMGWYRQAPWKERELVADITISTGSTYYADSVKGRYTISRDNAKNSVYLQMNSLKPEDTAVYYCAADWTGGFYTWYVIPYDYWGQGTQVTVSS”, the “polyreactivity (PSR sort gate)” value is reported as “low polyreactivity”. For “QVQLVDSGGGLVQAGGSLRLSCAASGITFTRYAMGWYRQAPGKERELVAAISSGGRTNYADSVKGRFTISRDNAKNTVYLQMNSLKREDTAVYYCNALYRARWGLGTQVTVSS”, the “polyreactivity (PSR sort gate)” value was “high polyreactivity”. In the case of “QVQLVDSGGGLVQAGGSLRLSCAASGLIFLYYAMGWYRQAPGKERELVAAISSSGSTYYADSVKGRFTISRDNAKNTVYLQMNSLKPEDTAVYYCAARWTRNYGMNYWGQGTQVTVSS”, the “polyreactivity (PSR sort gate)” value is reported as “high polyreactivity”. In the case of “QVQLVDSGGGLVQAGGSLRLSCAASGLTFYSNAMGWYRQAPGKEREFVASITRRTGITFYAVSVKGRFTISRDNAKNTVYLQMNSLKPYDTAVYYCATRGGYPKGYGYLAFNYWGQGTQVTVSS”, the “polyreactivity (PSR sort gate)” value is reported as “high polyreactivity”. With “QVQLVDSGGGLVQAGGSLRLSCAASGNIFVGNAMGWYRQAPGKERELVAAIRRSGGTTYYADSVKGRFTISRDNAKNTVYLQMNSLKPEDTAVYYCAASRPYQGDYWGQGTQVTVSS” the “polyreactivity (PSR sort gate)” value was “low polyreactivity”. With “QVQLVDSGGGLVQAGGSLRLSCAASGRIFRYNTMGWYRQAPGKEREFVAAITQRGVNTYYADSVKGRFTISRDNAKNTVYLQMNRLKPEDTAVYYCNAKRYSYWIYRAYDYWGQGTQVTVSS” the “polyreactivity (PSR sort gate)” value was “low polyreactivity”.
